From patent US20240228596A1 (VIB VZW, published 2024)

Tests used:
[1] = biological target: T1, SARS-COV-2 RBD displayed on the surface of Saccharomyces cerevisiae cells (SARS-COV-2, UniProt P0DTC2 331-531); experiment: flow cytometry, yeast-displayed RBD
[2] = biological target: SARS-COV-2 Wuhan WT Spike_del18 on VSV-delG pseudotyped particles (SARS-COV-2, UniProt P0DTC2 14-1255); experiment: cell-based or functional assay
[3] = biological target: T1, SARS-COV-2 RBD displayed on the surface …; experiment: yeast cell ELISA (FIG. 27)
[4] = biological target: monomeric human Fc-fused SARS-COV-2_RBD-SD1 (SARS-COV-2, UniProt P0DTC2 319-591)

B1: VHH3.89 (VHH)
VHH: QVQLQESGGGLVQPGGSLRLSCAASGFTLDYYAIGWFREVPGKEREGLSRIDSSDGSTYYADSVKGRFTISRDNTKNIVYLQMNNLKPEDTAVYYCATDPIIQGRNWYWTGWGQGTQVTVSS
[1]
  binding result: binds

B2: VHH72_h1_S56A (VHH)
VHH: EVQLVESGGGLVQPGGSLRLSCAASGRTFSEYAMGWFRQAPGKEREFVATISWSGGATYYTDSVKGRFTISRDNAKNTVYLQMNSLRPEDTAVYYCAAAGLGTVVSEWDYDYDYWGQGTLVTVSS
[2]
  IC50 Mean VSV-dG-spike SARS-COV-2: 1.14 µg/mL

B3: KiH19 = VHH117/VHH83-10GS-KiH (bispecific antibody, V domains shown)
V domain 1: DVQLQESGGGLVQPGGSLRLSCAASGKAVSISDMGWYRQPPGKQRELVATITKTGSTNYADSAQGRFTISRDNTKSAVYLEMKSLKPEDTAVYYCNAWLPYGMGPDYYGMELWGKGTQVTVSS
V domain 2: DVQLQESGGGLVQPGDSLRLSCVLSGGVFTSYAMGWFRQAPGKEREFLAAITFNSDATYYADSVKGRFTISRDNAKNTAYLQMNSLKPEDTAVYSCAAGGNHYNPQYYHDYDKYDHWGQGTQVTVSS
[3]
  binding result: binds

B4: VHH3.117 (VHH)
VHH: QVQLQESGGGLVQPGGSLRLSCAASGKAVSISDMGWYRQPPGKQRELVATITKTGSTNYADSAQGRFTISRDNTKSAVYLEMKSLKPEDTAVYYCNAWLPYGMGPDYYGMELWGKGTQVTVSS
[4]
  Kd: 0.445 nM
